These results are taken from patent publication US20190023782A1 (SHANGHAI JUNSHI BIOSCIENCES, published 2019).

The target in assay [1] is T1, rh-PD-1 recombinant protein (human, UniProt Q15116 25-170, limits assumed).
T1 construct: also called human-derived PD-1; PD-1 protein
The experiment in a line: ELISA on PD-1 protein. (In general: In an ELISA, binding on a coated surface is turned into a signal by an enzyme label.)

For assay [2], the target named is T1, rh-PD-1 recombinant protein. Put plainly: ELISA, PD-1 coated at 1 ug/ml, goat anti-human HRP detection. As for the experimental part:
(§1) 1 ug /ml of human-derived PD-1, Macaca fascicularis PD-1, and mouse-derived PD-1 (Sinobiological) in the carbonate buffer solution (0.05 M PH9) were prepared and used to coat the wells of the 96-well flat-bottom plates at 4° C. overnight. The next day, solution was removed from the wells and the wells were washed three times with a washing buffer. PBS solution containing 3% BSA was added to block the wells for 20 minutes. […] The mixture was incubated at room temperature for 1 hour and then washed three times with a washing buffer. A HRP conjugated goat anti human antibody (Jackson Immunoresearch) was first diluted to 1: 10000 with the washing buffer and then added to the wells to incubate at room temperature for 1 hour. After washing three times with the washing buffer, 50 ul TMB substrate solution was added to the wells to develop the color. After 10 minutes at room temperature, the color development reaction was terminated with 25 ul 0.5M sulfuric acid solution and the absorbance was read at 450 nm.

In another assay the target is T2, Macaca fascicularis PD-1 (Macaca fascicularis).
T2 construct: also called cyno PD-1
T2 chain: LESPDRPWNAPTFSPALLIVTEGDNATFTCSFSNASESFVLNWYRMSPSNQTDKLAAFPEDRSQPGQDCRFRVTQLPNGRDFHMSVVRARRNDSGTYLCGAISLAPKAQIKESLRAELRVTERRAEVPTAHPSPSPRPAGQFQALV
The assay is described as above. The procedure: as §1

In assay [3] the target is T1, rh-PD-1 recombinant protein. Put plainly: ELISA, rh-PD-1 coated at 1 ug/ml, antibody at 1 ug/ml.
Protocol: The next day, solution was removed from the wells and the wells were washed three times with a washing buffer (PBS+0.5% TWEEN). PBS solution containing 3% BSA was added to the wells to block for 20 minutes. After washing three times with the washing buffer, 100 ul of each antibody clone was added at 1 ug/ml and incubated at room temperature for 1 hour. After three washes with the washing buffer, HRP cross-linked goat anti mouse antibody (Jackson Immunoresearch) was diluted in the washing buffer 1: 0000, and added to the sample wells and incubated at room temperature for 1 hour. After three washes with the washing buffer, 50 ul TMB (tetramethyl benzidine) substrate solution was added to develop the color. The color reaction was terminated after the reaction was continued for 10 minutes at room temperature by adding 25 ul of 0.5M sulfuric acid solution to the reaction mixture. The absorbance was then measured at 450 nm.

T1 sequence (Q15116 25-170 limits assumed): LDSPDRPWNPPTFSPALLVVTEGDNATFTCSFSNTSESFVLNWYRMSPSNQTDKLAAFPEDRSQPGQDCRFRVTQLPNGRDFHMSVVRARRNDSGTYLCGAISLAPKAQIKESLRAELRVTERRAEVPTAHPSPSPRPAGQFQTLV

B1: H1L1 (antibody, V domains shown)
VH: QGQLQQSGAELVRPGASVTLTCKASGYTFTDYEMHWVKQTPIHGLEWIGVIESETGGTAYNQKFKGKAKLTADKSSSTAYMELRSLTSEDSAVYYCTREGITTVATTYYWYFDVWGTGTTVTVSS
VL: DVLMTQTPLSLPVSLGDQASISCRSSQSIVHSNGNTYLEWYLQKPGQSPELLIYKVYNRFSGVPDRFSGSGSGTDFTLKISRVEAEDLGVYYCFQGSHVPFTFGSGTKLEIK
notes: also called original antibody 1 (heavy chain 1, light chain 1)
As a reminder, the EC50 is the midpoint of the concentration-response curve. For the molecule B1, the EC50 in assay [1] turned out to be 0.338 nM.

B2: H10L10 (antibody, V domains shown)
VH: QVQLQQSGAELVRPGASVTLSCKASGYTFTDYEMHWVKQTPVHGLEWIGAIDPETGGAAYNQKFKGKAILTADKSSSTAYMELRSLTSEDSAVYYCTREGITTSVVTYYWYFDVWGTGTTVTVSS
VL: DVLMTQTPLSLPVSLGDQASISCRSSQSIVHSNGNTYLEWYLQKPGQSPKLLIYKVSNRFSGVPDRFSGSGSGTDFTLRISRVEPEDLGVYYCFQGSHVPLTFGSGTKLEIK
notes: also called original antibody 10 (heavy chain 10, light chain 10)
For B2, the EC50 in assay [1] came out at 0.426 nM.

B3: humanized antibody Clone 41 (antibody, V domains shown)
VH: QGQLVQSGAEVKKPGASVKVSCKASGYTFTDYEMHWVRQAPGQGLEWMGVIESETGGTAYNQKFQGRVTLTADKSSSTAYMELSSLRSEDTAVYYCTREGITTVATTYYWYFDVWGQGTLVTVSS
VL: DVVMTQSPLSLPVTLGQPASISCRSSQSIVHSNGNTYLEWYLQKPGQSPQLLIYKVSNRFSGVPDRFSGSGSGTDFTLKISRVEAEDVGVYYCFQGSHVPLTFGQGTKLEIK
notes: Humanized antibody; also called hu41
As to B3, the binding result (in assay [2]; with Macaca fascicularis PD-1) was “binds” in each case.

B4: H10L1 (antibody, V domains shown)
VH: QVQLQQSGAELVRPGASVTLSCKASGYTFTDYEMHWVKQTPVHGLEWIGAIDPETGGAAYNQKFKGKAILTADKSSSTAYMELRSLTSEDSAVYYCTREGITTSVVTYYWYFDVWGTGTTVTVSS
VL: DVLMTQTPLSLPVSLGDQASISCRSSQSIVHSNGNTYLEWYLQKPGQSPELLIYKVYNRFSGVPDRFSGSGSGTDFTLKISRVEAEDLGVYYCFQGSHVPFTFGSGTKLEIK
notes: also called recombinant antibody H10L1 (heavy chain 10, light chain 1)
Regarding B4, the EC50 in assay [1] worked out at 0.528 nM.

B5: H1L10 (antibody, V domains shown)
VH: QGQLQQSGAELVRPGASVTLTCKASGYTFTDYEMHWVKQTPIHGLEWIGVIESETGGTAYNQKFKGKAKLTADKSSSTAYMELRSLTSEDSAVYYCTREGITTVATTYYWYFDVWGTGTTVTVSS
VL: DVLMTQTPLSLPVSLGDQASISCRSSQSIVHSNGNTYLEWYLQKPGQSPKLLIYKVSNRFSGVPDRFSGSGSGTDFTLRISRVEPEDLGVYYCFQGSHVPLTFGSGTKLEIK
notes: also called recombinant antibody H1L10 (heavy chain 1, light chain 10)
Regarding B5, in assay [1], the EC50 stood at 0.27 nM.

B6: Clone 11 (antibody, V domains shown)
VH: QVTLKESGPGILQPSQTLSLTCSFSGFSLSTFGMGVGWIRQPSGKGLEWLAHIWWDDDKYYNPALKSRLTISKNTSKNQVFLKIANVDTEDTATYYCARIEERFRWYFDVWGTGTTVTVSS
VL: RAGWTQESALTTSPGETVTLTCRSSTGAITTSNYANWVQEKPDHLFTGLIGGTNNRAPGVPARFSGSLIGDKAALTITGAQTEDEAIYFCALWYSNHWVFGGGTKLTVL
notes: Mouse hybridoma antibody; also called antibody candidate Clone 11
For the molecule B6, the binding result in assay [3] is “binds”.
